Here are results for three substances from US20060286636A1.

Assay [1] concerns the target mouse VEGFR-2/Fc chimeric receptor (mouse) (UniProt P35918). Nature of the assay: competition plate binding assay: cold competitor against 125I-VEGF165 on immobilized VEGFR-2 (KDR)/Fc, scintillation counting.
For assay [2], the target named is mouse VEGFR-1/Fc chimeric receptor (mouse) (UniProt P35969). Briefly: competition plate binding assay: cold competitor against 125I-VEGF165 on immobilized VEGFR-1 (Flt-1)/Fc, scintillation counting.
mouse VEGFR-1/Fc chimeric receptor (mouse), sequence (P35969 23-759, stated change not applied): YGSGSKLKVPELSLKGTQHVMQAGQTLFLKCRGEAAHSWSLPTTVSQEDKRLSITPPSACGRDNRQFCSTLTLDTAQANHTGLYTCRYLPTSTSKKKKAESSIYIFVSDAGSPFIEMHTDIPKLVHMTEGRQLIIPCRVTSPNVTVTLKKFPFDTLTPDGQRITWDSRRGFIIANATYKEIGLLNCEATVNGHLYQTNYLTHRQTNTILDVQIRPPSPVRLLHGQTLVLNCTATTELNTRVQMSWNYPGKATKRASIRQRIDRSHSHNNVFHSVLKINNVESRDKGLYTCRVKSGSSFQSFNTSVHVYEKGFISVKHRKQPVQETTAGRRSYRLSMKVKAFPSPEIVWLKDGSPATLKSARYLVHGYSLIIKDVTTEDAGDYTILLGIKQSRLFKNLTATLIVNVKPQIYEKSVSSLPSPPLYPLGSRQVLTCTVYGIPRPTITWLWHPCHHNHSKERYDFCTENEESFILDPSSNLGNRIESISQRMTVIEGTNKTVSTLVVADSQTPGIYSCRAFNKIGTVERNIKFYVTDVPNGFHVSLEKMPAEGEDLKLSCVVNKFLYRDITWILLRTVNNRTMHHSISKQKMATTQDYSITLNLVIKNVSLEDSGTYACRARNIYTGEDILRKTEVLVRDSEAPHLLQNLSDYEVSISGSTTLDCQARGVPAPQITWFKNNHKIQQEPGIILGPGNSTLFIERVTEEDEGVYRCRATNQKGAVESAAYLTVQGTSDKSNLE
Assay [3] concerns the target rat Neuropilin-1/Fc chimeric receptor (rat) (UniProt Q9QWJ9). Briefly: competition plate binding assay, cold competitor against 125I-VEGF165 on immobilized rat neuropilin-1/Fc, without heparin.

mouse VEGFR-2/Fc chimeric receptor (mouse), sequence (P35918 20-762, stated change not applied): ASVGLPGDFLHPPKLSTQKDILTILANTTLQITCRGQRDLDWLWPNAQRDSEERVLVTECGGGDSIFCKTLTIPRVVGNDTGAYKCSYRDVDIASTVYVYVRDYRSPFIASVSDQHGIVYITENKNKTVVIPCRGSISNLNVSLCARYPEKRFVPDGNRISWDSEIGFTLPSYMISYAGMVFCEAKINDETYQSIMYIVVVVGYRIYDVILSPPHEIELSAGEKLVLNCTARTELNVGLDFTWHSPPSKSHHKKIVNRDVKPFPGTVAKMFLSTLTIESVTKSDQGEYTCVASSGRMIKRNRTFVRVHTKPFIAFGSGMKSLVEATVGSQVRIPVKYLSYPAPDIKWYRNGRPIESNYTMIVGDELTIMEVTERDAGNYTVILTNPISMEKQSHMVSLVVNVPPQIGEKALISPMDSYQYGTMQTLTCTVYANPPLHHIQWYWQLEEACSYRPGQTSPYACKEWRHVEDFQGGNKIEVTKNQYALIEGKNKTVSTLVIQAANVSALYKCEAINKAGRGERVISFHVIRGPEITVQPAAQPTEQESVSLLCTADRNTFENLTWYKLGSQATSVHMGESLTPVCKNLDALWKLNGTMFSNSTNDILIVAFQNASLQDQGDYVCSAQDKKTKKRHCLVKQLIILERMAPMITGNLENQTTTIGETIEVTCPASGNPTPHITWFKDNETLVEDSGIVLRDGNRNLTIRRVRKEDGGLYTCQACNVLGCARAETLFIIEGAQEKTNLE
rat Neuropilin-1/Fc chimeric receptor (rat), sequence (Q9QWJ9 22-854, stated change not applied): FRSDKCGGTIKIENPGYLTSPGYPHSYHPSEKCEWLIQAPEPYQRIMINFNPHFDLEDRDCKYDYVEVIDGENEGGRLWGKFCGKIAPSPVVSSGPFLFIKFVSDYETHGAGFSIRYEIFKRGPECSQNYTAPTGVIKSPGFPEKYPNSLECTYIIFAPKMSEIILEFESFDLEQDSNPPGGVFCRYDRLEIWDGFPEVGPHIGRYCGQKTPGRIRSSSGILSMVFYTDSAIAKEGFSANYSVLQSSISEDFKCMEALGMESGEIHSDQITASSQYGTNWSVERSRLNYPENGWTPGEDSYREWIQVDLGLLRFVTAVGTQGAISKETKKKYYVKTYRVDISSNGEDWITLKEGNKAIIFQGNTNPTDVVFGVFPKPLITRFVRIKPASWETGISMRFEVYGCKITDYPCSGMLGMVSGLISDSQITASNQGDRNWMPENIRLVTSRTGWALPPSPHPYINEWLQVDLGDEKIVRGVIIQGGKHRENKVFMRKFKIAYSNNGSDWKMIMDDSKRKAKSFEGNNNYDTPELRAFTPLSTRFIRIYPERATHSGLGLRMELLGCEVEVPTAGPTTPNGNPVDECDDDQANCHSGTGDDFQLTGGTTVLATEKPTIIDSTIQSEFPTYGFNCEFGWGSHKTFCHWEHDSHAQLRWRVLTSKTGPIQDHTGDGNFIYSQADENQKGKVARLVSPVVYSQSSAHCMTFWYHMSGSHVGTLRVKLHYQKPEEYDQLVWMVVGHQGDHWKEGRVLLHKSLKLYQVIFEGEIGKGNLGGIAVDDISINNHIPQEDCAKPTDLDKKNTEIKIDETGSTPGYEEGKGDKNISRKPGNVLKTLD

As for “VEGF164 double mutant R14A/R49A (from UniProt P15692 207-395) (ligand)”, the IC50 (read off the curve) was found to be 0.08 nM in assay [1] and 0.09 nM in assay [2].
“VEGF164 mutant R13A/R14A/R46A/R49A (from UniProt Q00731 27-190) (ligand)” came in with a fold reduction of binding affinity compared to VEGF164 in assay [3] of 115 fold.
In the case of “VEGF164 triple mutant R13A/R14A/R49A (from UniProt P15692 207-395) (ligand)”, the IC50 (read off the curve) turned out to be 0.08 nM in assay [1] and 0.2 nM in assay [2].
